Our source for the Kd values is PMC10089223 (Proceedings of the National Academy of Sciences of the …, 2022).

Changes are numbered by the printed parent chain. Numbers in names are those of the source.

To fix the notation:
B1: AtARF2-FL OPCA (D797-8S) (natural protein, Arabidopsis thaliana, UniProt Q94JM3 1-859, looked up)
chain: MASSEVSMKGNRGGDNFSSSGFSDPKETRNVSVAGEGQKSNSTRSAAAERALDPEAALYRELWHACAGPLVTVPRQDDRVFYFPQGHIEQVEASTNQAAEQQMPLYDLPSKLLCRVINVDLKAEADTDEVYAQITLLPEANQDENAIEKEAPLPPPPRFQVHSFCKTLTASDTSTHGGFSVLRRHADECLPPLDMSRQPPTQELVAKDLHANEWRFRHIFRGQPRRHLLQSGWSVFVSSKRLVAGDAFIFLRGENGELRVGVRRAMRQQGNVPSSVISSHSMHLGVLATAWHAISTGTMFTVYYKPRTSPSEFIVPFDQYMESVKNNYSIGMRFKMRFEGEEAPEQRFTGTIVGIEESDPTRWPKSKWRSLKVRWDETSSIPRPDRVSPWKVEPALAPPALSPVPMPRPKRPRSNIAPSSPDSSMLTREGTTKANMDPLPASGLSRVLQGQEYSTLRTKHTESVECDAPENSVVWQSSADDDKVDVVSGSRRYGSENWMSSARHEPTYTDLLSGFGTNIDPSHGQRIPFYDHSSSPSMPAKRILSDSEGKFDYLANQWQMIHSGLSLKLHESPKVPAATDASLQGRCNVKYSEYPVLNGLSTENAGGNWPIRPRALNYYEEVVNAQAQAQAREQVTKQPFTIQEETAKSREGNCRLFGIPLTNNMNGTDSTMSQRNNLNDAAGLTQIASPKVQDLSDQSKGSKSTNDHREQGRPFQTNNPHPKDAQTKTNSSRSCTKVHKQGIALGRSVDLSKFQNYEELVAELDRLFEFNGELMAPKKDWLIVYTDEENDMMLVGSSPWQEFCCMVRKIFIYTKEEVRKMNPGTLSCRSEEEAVVGEGSDAKDAKSASNPSLSSAGNS
B2: AtARF2-FL K2S (K737S) (natural protein, Arabidopsis thaliana, UniProt Q94JM3 1-859, looked up)
chain: B1 chain with K737S, S797D, S798D

For data set [1], the target named is AtARF2-DBD (DNA binding domain of Arabidopsis thaliana auxin response factor 2) (Arabidopsis thaliana).
Data set [2] concerns the molecule itself.
The data set “AtARF2-FL OPCA (D797-8S)” addresses B1.

One may read the Kd as the concentration at which binding is half-saturated. Molecule “AtARF2-DBD (DNA binding domain of Arabidopsis thaliana auxin response factor 2) (domain or fragment)” registered an equilibrium dissociation constant (Kd) in data set [1] of 1900 nM.

For the molecule B1, in data set [2], the Kd worked out at 410 nM. This lies in the sub-micromolar range.

As to B2, the figures for the dissociation constant (Kd) (with AtARF2-FL OPCA (D797-8S); in data set [2]) were 16 nM and 230 nM, respectively.
